In the data set the test system is acetylated histone H3. The settings on record: ChIP with qPCR. Background: Quantitative PCR measures a nucleic acid by following its amplification.

Substance “p16 5'-UTR CpG island region, methylated (untreated HCT15)” registered a binding signal (reference (10-fold lower than treated)) (5mC in CpG island, untreated HCT15 cells) of 1.
For the setting “HCT15 cells treated with 2 uM 5-azacytidine”, “p16 5'-UTR CpG island region, unmethylated (5-azacytidine-treated HCT15)” yielded a binding signal (fold enrichment vs untreated) of 10.

Source of the values: US20020081603.
